Assay results as given in PMC2809015 (Biochemistry, 2009).
Values joined by “and” are separate entries in the source; they are usually repeats but may differ in a detail not shown here. Equal entries are not always repeated. Where two headings read alike, the source gives them in different places.

B1: BioB containing one [2Fe-2S]2+ cluster per monomer (enzyme, E. coli, UniProt P12996 1-346, looked up)
chain: MAHRPRWTLSQVTELFEKPLLDLLFEAQQVHRQHFDPRQVQVSTLLSIKTGACPEDCKYCPQSSRYKTGLEAERLMEVEQVLESARKAKAAGSTRFCMGAAWKNPHERDMPYLEQMVQGVKAMGLEACMTLGTLSESQAQRLANAGLDYYNHNLDTSPEFYGNIITTRTYQERLDTLEKVRDAGIKVCSGGIVGLGETVKDRAGLLLQLANLPTPPESVPINMLVKVKGTPLADNDDVDAFDFIRTIAVARIMMPTSYVRLSAGREQMNEQTQAMCFMAGANSIFYGCKLLTTPNPEEDKDLQLFRKLGLNPQQTAVLAGDNEQQQRLEQALMTPDTDEYYNAAAL
B4: HscA substrate binding domain (SBD-HscA, residues 389-616) (domain or fragment, E. coli, UniProt P0A6Z1 389-616, looked up)
chain: LDVIPLSLGLETMGGLVEKVIPRNTTIPVARAQDFTTFKDGQTAMSIHVMQGERELVQDCRSLARFALRGIPALPAGGAHIRVTFQVDADGLLSVTAMEKSTGVEASIQVKPSYGLTDSEIASMIKDSMSYAEQDVKARMLAEQKVEAARVLESLHGALAADAALLSAAERQVIDDAAAHLSEVAQGDDVDAIEQAIKNVDKQTQDFAARRMDQSVRRALKGHSVDEV

Tests used:
[1] = biological target: T1, HscA, Hsp70-class molecular chaperone of the isc operon (E. coli, UniProt P0A6Z1 1-616); test: molecular weight filtration assay
T1 sequence (looked up): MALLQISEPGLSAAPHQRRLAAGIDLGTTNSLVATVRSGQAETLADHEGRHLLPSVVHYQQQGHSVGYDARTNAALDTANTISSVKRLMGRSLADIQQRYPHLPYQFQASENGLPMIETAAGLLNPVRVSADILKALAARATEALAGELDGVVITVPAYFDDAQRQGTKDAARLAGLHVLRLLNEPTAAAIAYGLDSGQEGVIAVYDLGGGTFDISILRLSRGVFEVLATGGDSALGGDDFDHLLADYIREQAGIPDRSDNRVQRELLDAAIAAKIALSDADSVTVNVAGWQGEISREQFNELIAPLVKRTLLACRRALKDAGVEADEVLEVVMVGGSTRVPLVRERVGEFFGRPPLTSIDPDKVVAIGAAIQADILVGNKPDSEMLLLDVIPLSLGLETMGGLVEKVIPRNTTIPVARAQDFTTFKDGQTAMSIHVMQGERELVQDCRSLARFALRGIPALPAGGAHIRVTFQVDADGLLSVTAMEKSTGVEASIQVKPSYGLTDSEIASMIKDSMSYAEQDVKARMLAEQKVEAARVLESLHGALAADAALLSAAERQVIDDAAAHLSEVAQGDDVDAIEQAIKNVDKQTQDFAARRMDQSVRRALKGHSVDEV

[2] = biological target: T1, HscA, Hsp70-class molecular chaperone …; test: molecular weight filtration assay; remark: listed apart in the source
[3] = biological target: the molecule itself; test: AUC
[4] = biological target: T1, HscA, Hsp70-class molecular chaperone …; test: AUC
[5] = biological target: T1, HscA, Hsp70-class molecular chaperone …; test: molecular weight filtration assay; remark: listed apart in the source
[6] = biological target: B4; test: molecular weight filtration assay
[7] = biological target: the molecule itself; test: AUC; remark: listed apart in the source
[8] = biological target: B1; test: molecular weight filtration assay
[9] = biological target: T1, HscA, Hsp70-class molecular chaperone …; test: molecular weight filtration assay; remark: listed apart in the source

## B1
[1]
  Kd: ~5 µM
[2]
  Kd: 5.5 µM and 5.6 µM
[3]
  stoichiometry N: 2
[4]
  Kd: 12 µM
  stoichiometry N: 1 HscA per BioB dimer and 2 HscA per BioB dimer
[5]
  stoichiometry N: ~1 HscA per BioB dimer
[6]
  stoichiometry N: 1

B2: BioB containing both [2Fe-2S]2+ and [4Fe-4S]2+ clusters (enzyme, E. coli, UniProt P12996 1-346, looked up)
chain: MAHRPRWTLSQVTELFEKPLLDLLFEAQQVHRQHFDPRQVQVSTLLSIKTGACPEDCKYCPQSSRYKTGLEAERLMEVEQVLESARKAKAAGSTRFCMGAAWKNPHERDMPYLEQMVQGVKAMGLEACMTLGTLSESQAQRLANAGLDYYNHNLDTSPEFYGNIITTRTYQERLDTLEKVRDAGIKVCSGGIVGLGETVKDRAGLLLQLANLPTPPESVPINMLVKVKGTPLADNDDVDAFDFIRTIAVARIMMPTSYVRLSAGREQMNEQTQAMCFMAGANSIFYGCKLLTTPNPEEDKDLQLFRKLGLNPQQTAVLAGDNEQQQRLEQALMTPDTDEYYNAAAL
[5]
  stoichiometry N: ~1 HscA per BioB dimer

B3: BioB apoprotein (His6-biotin synthase lacking both iron-sulfur clusters) (enzyme, E. coli, UniProt P12996 1-346, looked up)
chain: MAHRPRWTLSQVTELFEKPLLDLLFEAQQVHRQHFDPRQVQVSTLLSIKTGACPEDCKYCPQSSRYKTGLEAERLMEVEQVLESARKAKAAGSTRFCMGAAWKNPHERDMPYLEQMVQGVKAMGLEACMTLGTLSESQAQRLANAGLDYYNHNLDTSPEFYGNIITTRTYQERLDTLEKVRDAGIKVCSGGIVGLGETVKDRAGLLLQLANLPTPPESVPINMLVKVKGTPLADNDDVDAFDFIRTIAVARIMMPTSYVRLSAGREQMNEQTQAMCFMAGANSIFYGCKLLTTPNPEEDKDLQLFRKLGLNPQQTAVLAGDNEQQQRLEQALMTPDTDEYYNAAAL
[7]
  stoichiometry N: 2
[5]
  stoichiometry N: 0.96 apoBioB dimer per HscA

## B4
[8]
  Kd: 0.55 ± 0.3 µM

B5: dethiobiotin synthase (BioD) (enzyme)
chain: SKRYFVTGTDTEVGKTVASCALLQAAKAAGYRTAGYKPVASGSEKTPEGLRNSDALALQRNSSLQLDYATVNPYTFAEPTSPHIISAQEGRPIESLVMSAGLRALEQQADWVLVEGAGGWFTPLSDTFTFADWVTQEQLPVILVVGVKLGCINHAMLTAQVIQHAGLTLAGWVANDVTPPGKRHAEYMTTLTRMIPAPLLGEIPWLAENPENAATGKYINLALL
[9]
  Kd: ≥ 1100 µM
